{"source": "patent US20220220164A1", "target": "maize RIP β-chain (second component of the gePSI), C-terminally fused to a murine ornithine decarboxylase (ODC36) degron (maize (Zea mays); murine) (UniProt P00860)", "sequence (P00860 426-461, tags or fused parts left off)": "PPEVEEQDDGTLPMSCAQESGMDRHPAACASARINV", "assay": "cell-based or functional assay", "conditions": "scale: normalized nascent protein signal", "data": [{"substance": "maize RIP α-chain (first component of the gePSI) (from UniProt P25891 22-161) (enzyme)", "values": [{"measurement": "nascent protein signal of gePSI-transfected neurons after 4 h dox, normalized to the mean of neighboring untransfected neurons (FIG. 1g)", "value": 0.21}]}]}
